Test results reported in the Immune Epitope Database (IEDB).

Legend:
HLA-A*02:03 = test: IEDB peptide-MHC binding, purified MHC/competitive/radioactivity; filed as Kd, often an IC50 or EC50 that approximates it; ≥ and ≤ were set here for values at or beyond the usual limits of such assays
HLA-A*02:06 = test: as above
HLA-A*02:17 = test: as above
HLA-B*18:01 [1] = test: IEDB peptide-MHC binding, purified MHC/direct/fluorescence; filed as Kd, often an IC50 or EC50 that approximates it; ≥ and ≤ were set here for values at or beyond the usual limits of such assays; settings: source organism: Shigella sonnei Ss046
HLA-A*68:02 [2] = test: as above
HLA-B*07:02 = test: as above; settings: source organism: Shigella sonnei Ss046
HLA-B*40:01 = test: as above; settings: source organism: Shigella sonnei Ss046
HLA-B*46:01 [3] = test: as above; settings: source organism: Shigella sonnei Ss046
HLA-B*48:01 = test: as above; settings: source organism: Shigella sonnei Ss046
HLA-A*02:01 [4] = test: as above; settings: source organism: Shigella sonnei Ss046
HLA-A*03:01 [5] = test: as above
HLA-B*57:01 = test: as above
HLA-B*27:05 = test: as above; settings: source organism: Shigella sonnei Ss046
HLA-A*11:01 = test: as above; settings: source organism: Shigella sonnei Ss046
HLA-B*15:01 [6] = test: as above; settings: source organism: Shigella sonnei Ss046
HLA-A*31:01 = test: as above; settings: source organism: Shigella sonnei Ss046
HLA-B*15:17 = test: as above; settings: source organism: Shigella sonnei Ss046
HLA-B*58:01 [7] = test: as above; settings: source organism: Shigella sonnei Ss046
HLA-A*01:01 = test: IEDB peptide-MHC binding, purified MHC/competitive/fluorescence; filed as Kd, often an IC50 or EC50 that approximates it; ≥ and ≤ were set here for values at or beyond the usual limits of such assays
HLA-A*03:01 [8] = test: as above
HLA-B*46:01 [9] = test: as above
HLA-B*58:01 [10] = test: as above
HLA-A*02:01 [11] = test: IEDB peptide-MHC binding, purified MHC/competitive/radioactivity; filed as Kd, often an IC50 or EC50 that approximates it; ≥ and ≤ were set here for values at or beyond the usual limits of such assays
HLA-A*32:01 = test: as above; settings: source organism: Dengue virus 2 Peru/IQT2913/1996
HLA-B*15:01 [12] = test: IEDB peptide-MHC binding, purified MHC/competitive/fluorescence; filed as Kd, often an IC50 or EC50 that approximates it; ≥ and ≤ were set here for values at or beyond the usual limits of such assays
HLA-A*26:01 [13] = test: as above
HLA-A*68:02 [14] = test: IEDB peptide-MHC binding, purified MHC/competitive/radioactivity; filed as Kd, often an IC50 or EC50 that approximates it; ≥ and ≤ were set here for values at or beyond the usual limits of such assays
HLA-A*02:12 [15] = test: IEDB peptide-MHC binding, purified MHC/direct/fluorescence; filed as Kd, often an IC50 or EC50 that approximates it; ≥ and ≤ were set here for values at or beyond the usual limits of such assays; settings: source organism: Choclo virus
HLA-A*02:19 [16] = test: as above; settings: source organism: Choclo virus
HLA-A*02:16 = test: as above; settings: source organism: Choclo virus
HLA-B*18:01 [17] = test: IEDB peptide-MHC binding, purified MHC/competitive/fluorescence; filed as Kd, often an IC50 or EC50 that approximates it; ≥ and ≤ were set here for values at or beyond the usual limits of such assays
HLA-A*02:01 [18] = test: as above; settings: source organism: Orthohantavirus sinnombreense
HLA-A*69:01 = test: as above; settings: source organism: Orthohantavirus sinnombreense
HLA-B*27:03 = test: as above
HLA-B*39:01 = test: as above
HLA-B*51:01 = test: as above
HLA-B*35:01 = test: IEDB peptide-MHC binding, purified MHC/competitive/radioactivity; filed as Kd, often an IC50 or EC50 that approximates it; ≥ and ≤ were set here for values at or beyond the usual limits of such assays; settings: source organism: Dengue virus 3 Martinique/1243/1999
HLA-A*26:01 [19] = test: as above; settings: source organism: Dengue virus 2 Jamaica/1409/1983
HLA-A*68:02 [20] = test: IEDB peptide-MHC binding, purified MHC/competitive/fluorescence; filed as Kd, often an IC50 or EC50 that approximates it; ≥ and ≤ were set here for values at or beyond the usual limits of such assays; settings: source organism: Vibrio cholerae 2740-80
HLA-A*02:12 [21] = test: as above; settings: source organism: Vibrio cholerae 2740-80
HLA-A*02:19 [22] = test: as above; settings: source organism: Vibrio cholerae 2740-80
[23] = source organism: Dengue virus 2 Peru/IQT2913/1996
[24] = source organism: Dengue virus 2 Thailand/NGS-C/1944
[25] = source organism: Shigella sonnei Ss046
[26] = source organism: Salmonella enterica subsp. enterica serovar Typhi
[27] = source organism: Francisella tularensis subsp. tularensis FSC198
[28] = source organism: Dengue virus 4 Philippines/H241/1956
[29] = source organism: Escherichia coli 536
[30] = source organism: Dengue virus 3 Martinique/1243/1999
[31] = source organism: Dengue virus 3 China/80-2/1980
[32] = source organism: Dengue virus 2 Jamaica/1409/1983
[33] = source organism: Orthohantavirus sinnombreense
[34] = source organism: Dengue virus 4 Dominica/814669/1981
[35] = source organism: Vibrio cholerae 2740-80

## LLVISGLFPV
HLA-A*02:03; [23]
  Kd: 4.84 nM
HLA-A*02:06; [23]
  Kd: 1.13 nM
HLA-A*02:17; [24]
  Kd: 45.5 nM

## VLDMGDPVK
HLA-B*18:01 [1]
  Kd: ≥ 20000 nM
HLA-A*68:02 [2]; [25]
  Kd: ≥ 20000 nM
HLA-B*07:02
  Kd: ≥ 20000 nM
HLA-B*40:01
  Kd: ≥ 20000 nM
HLA-B*46:01 [3]
  Kd: ≥ 20000 nM
HLA-B*48:01
  Kd: ≥ 20000 nM
HLA-A*02:01 [4]
  Kd: ≥ 20000 nM
HLA-A*03:01 [5]; [25]
  Kd: 2090 nM
HLA-B*57:01; [25]
  Kd: ≥ 20000 nM
HLA-B*27:05
  Kd: ≥ 20000 nM
HLA-A*11:01
  Kd: 7000 nM
HLA-B*15:01 [6]
  Kd: ≥ 20000 nM
HLA-A*31:01
  Kd: ≥ 20000 nM
HLA-B*15:17
  Kd: ≥ 20000 nM
HLA-B*58:01 [7]
  Kd: ≥ 20000 nM
HLA-A*01:01; source organism: Paraglaciecola sp. T6c
  Kd: 2590 nM

## WVAGVQLLY
HLA-A*01:01; [26]
  Kd: 39 nM
HLA-A*03:01 [8]; [26]
  Kd: 486 nM

## ISTHIGFSF
HLA-B*57:01; source organism: Francisella tularensis subsp. holarctica LVS
  Kd: 125 nM
HLA-B*46:01 [9]; [27]
  Kd: ≥ 20000 nM
HLA-B*58:01 [10]; [27]
  Kd: 1.5 nM

## TLLCLIPTA
HLA-A*02:01 [11]; [28]
  Kd: 5.77 nM
HLA-A*02:17; [28]
  Kd: 9560 nM

## KSLIISFAF
HLA-B*58:01 [10]; source organism: Bacillus anthracis str. A0488
  Kd: 391 nM

## GLFPVSIPI
HLA-A*02:03; [23]
  Kd: 4.32 nM
HLA-A*02:01 [11]; [24]
  Kd: 2.13 nM
HLA-A*02:17; [24]
  Kd: 69.9 nM
HLA-A*32:01
  Kd: 6.47 nM

## AVASLLDEY
HLA-A*01:01; [29]
  Kd: 720 nM
HLA-B*15:01 [12]; [29]
  Kd: 96.2 nM
HLA-A*26:01 [13]; [29]
  Kd: 871 nM

## FTMGVLCLA
HLA-A*68:02 [14]; [30]
  Kd: 12.5 nM
HLA-A*02:03; [30]
  Kd: 28.7 nM
HLA-A*02:06; [30]
  Kd: 3.17 nM
HLA-A*02:01 [11]; [31]
  Kd: 12.3 nM
HLA-A*02:17; [31]
  Kd: 6740 nM

## SLSVSLVLV
HLA-A*02:03; [32]
  Kd: 1.86 nM
HLA-A*02:01 [11]; [32]
  Kd: 58.5 nM
HLA-A*02:17; [32]
  Kd: 4450 nM

## GSFRKICGF
HLA-A*68:02 [2]; source organism: Choclo virus
  Kd: ≥ 20000 nM
HLA-A*02:12 [15]
  Kd: ≥ 20000 nM
HLA-A*03:01 [5]; source organism: Choclo virus
  Kd: ≥ 20000 nM
HLA-A*02:19 [16]
  Kd: ≥ 20000 nM
HLA-A*02:16
  Kd: ≥ 20000 nM
HLA-B*18:01 [17]; [33]
  Kd: ≥ 20000 nM
HLA-B*46:01 [9]; [33]
  Kd: ≥ 20000 nM
HLA-A*02:01 [18]
  Kd: ≥ 20000 nM
HLA-A*69:01
  Kd: ≥ 20000 nM
HLA-B*27:03; [33]
  Kd: ≥ 20000 nM
HLA-B*39:01; [33]
  Kd: ≥ 20000 nM
HLA-B*15:01 [12]; [33]
  Kd: ≥ 20000 nM
HLA-B*51:01; [33]
  Kd: ≥ 20000 nM
HLA-A*26:01 [13]; [33]
  Kd: ≥ 20000 nM
HLA-B*58:01 [10]; [33]
  Kd: 251 nM

## VLLLVTHYAI
HLA-A*02:01 [11]; [31]
  Kd: 219 nM
HLA-A*02:17; [31]
  Kd: 561 nM

## MLWMAEIPL
HLA-A*02:01 [11]; [30]
  Kd: 4.11 nM
HLA-B*35:01
  Kd: 408 nM
HLA-A*02:17; [30]
  Kd: 9.18 nM

## GVLIGGLEW
HLA-B*58:01 [10]; source organism: Influenza A virus (A/parakeet/Narita/92A/98(H9N2))
  Kd: 552 nM

## KMSPGYVLGV
HLA-A*02:03; [34]
  Kd: 0.57 nM
HLA-A*02:06; [34]
  Kd: 70.4 nM
HLA-A*02:01 [11]; [34]
  Kd: 4.44 nM
HLA-A*02:17; [34]
  Kd: 324 nM

## TLMLVALLGA
HLA-A*02:03; [28]
  Kd: 14.4 nM
HLA-A*02:06; [28]
  Kd: 378 nM
HLA-A*02:01 [11]; [28]
  Kd: 5.42 nM
HLA-A*02:17; [28]
  Kd: 11000 nM

## WTMKILIGV
HLA-A*68:02 [14]; [32]
  Kd: 8.95 nM
HLA-A*02:06; [32]
  Kd: 17.7 nM
HLA-A*02:01 [11]; [32]
  Kd: 22.5 nM
HLA-A*02:17; [32]
  Kd: 6060 nM
HLA-A*26:01 [19]
  Kd: 5360 nM

## SLLFKTEDGV
HLA-A*02:01 [11]; [32]
  Kd: 67.4 nM
HLA-A*02:17; [32]
  Kd: 719 nM

## KQLPPLAAW
HLA-B*18:01 [17]; [35]
  Kd: 6330 nM
HLA-A*68:02 [20]
  Kd: ≥ 20000 nM
HLA-B*46:01 [9]; [35]
  Kd: ≥ 20000 nM
HLA-A*02:12 [21]
  Kd: ≥ 20000 nM
HLA-A*03:01 [8]; [35]
  Kd: ≥ 20000 nM
HLA-B*27:03; [35]
  Kd: ≥ 20000 nM
HLA-B*39:01; [35]
  Kd: ≥ 20000 nM
HLA-A*02:19 [22]
  Kd: ≥ 20000 nM
HLA-B*51:01; [35]
  Kd: ≥ 20000 nM
HLA-A*26:01 [13]; [35]
  Kd: ≥ 20000 nM
